Experimental data as given in patent US20190352343A1 (AUCKLAND UNISERVICES, published 2019).

Assays:
[1] = molecular target: T1, Mol8 (Mobiluncus mulieris); test: SDS-PAGE of mixed Mol domains, ester bond ligation
T1 construct: also called Mol8 construct
T1 chain: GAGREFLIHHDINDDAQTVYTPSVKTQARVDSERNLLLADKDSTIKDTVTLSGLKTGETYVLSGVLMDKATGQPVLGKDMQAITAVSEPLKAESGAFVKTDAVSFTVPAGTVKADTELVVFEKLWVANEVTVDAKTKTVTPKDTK

[2] = molecular target: T2, Mol9 (Mobiluncus mulieris); test: SDS-PAGE of mixed Mol domains, ester bond ligation
T2 construct: also called Mol9 construct
T2 chain: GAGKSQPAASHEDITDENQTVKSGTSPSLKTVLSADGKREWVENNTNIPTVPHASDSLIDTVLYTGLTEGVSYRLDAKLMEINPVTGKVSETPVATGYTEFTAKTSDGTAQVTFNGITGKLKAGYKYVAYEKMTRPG

| Binder | binding result [1] | binding result [2] |
| --- | --- | --- |
| Mol10 (other, also called Mol10 construct) GAPDKPVPPPHEDPKDPNQTVVSEHNPGITTTLTDAQAAKGTDGKVISLTRDAQLKDVVRVTQTGLIEGAKYHVFSKLVNQANPDQVVSAGMQEFTATGDQLRSVTVKFTVPKETLQELAGSDPSAEFKLVAYEYLALDSDTDIVNKEATSEIEAVGFK | no binding (tested: equimolar amounts, 24 h) | – |
| Mol11 (other, also called Mol11 domain construct) GAGKTWAATHADPNDAGQTVTVVKAPKIGTTLKYGQSKTVWVADKVELTDTVEYFNLQPKTKYTLSGNLMGGTSAESLSDTGVKATTEFTTPAAANGAQTVSGTAVVKFTVPREVLERNEKLVAYEYLTIDGNPVASHEDPKDENQTVTSKKP | no binding (tested: equimolar amounts, 24 h) | no binding (tested: equimolar amounts, 24 h) |
